Assay [1] deals with human kappa opioid receptor (human) (UniProt P41145). Kind of assay: cell-based or functional assay.
The target in assay [2] is human mu opioid receptor (human) (UniProt P35372). Kind of assay: cell-based or functional assay.
The target of assay [3] is T1, human delta opioid receptor (human, UniProt P41143 1-372). Description: cell-based or functional assay.
Assay [4] addresses T1, human delta opioid receptor. Description: ratio of Ki at delta to Ki at mu, radioligand competition.
Assay [5] addresses human kappa opioid receptor (human) (UniProt P41145). Description: ratio of Ki at kappa to Ki at mu, radioligand competition.
Assay [6] addresses human mu opioid receptor (human) (UniProt P35372). Kind of assay: radioligand competition, 3H-DAMGO, membranes of CHO cells expressing cloned human mu receptor. A general note: Loss of bound radioactivity is the signal in a displacement assay; it reports binding, not function.
Assay [7] has as its target T1, human delta opioid receptor. Kind of assay: radioligand competition, 3H-DPDPE, membranes of CHO cells expressing cloned human delta receptor.
The target in assay [8] is human kappa opioid receptor (human) (UniProt P41145). Kind of assay: radioligand competition, 3H-U69593, membranes of CHO cells expressing cloned human kappa receptor.

Positions of bridges follow the written chain, without caps; N, C: chain ends. Non-standard residues stand in square brackets, D forms with d. No end group written: not given here.

As for ck2, Tyr-c[D-Lys-Phe-Phe] (peptide), the Agonist EC50 (35S-GTPγS assay) in assay [1] came to 206 nM; in assay [2], 0.15 nM; in assay [3], 7 nM. The Selectivity kappa/mu (agonist EC50) in assay [1] was determined as 1370. Besides, in assay [2], the efficacy of mu activation (35S-GTPγS) was > 90%. The same molecule gave a Selectivity delta/mu (agonist EC50) in assay [3] of 44. The Selectivity Delta/Mu in assay [4] amounted to 9. Also, the Selectivity Kappa/Mu in assay [5] worked out at 33. Further, the results for the inhibition constant Ki in assay [6], in assay [7] and in assay [8] were 0.36 nM, 3 nM and 12 nM, respectively.

ck1, Tyr-c[D-Lys-Trp-Phe] (peptide): the Agonist EC50 (35S-GTPγS assay) in assay [1] was 470 nM; in assay [2], 0.21 nM; in assay [3], 138 nM. This molecule also yielded a Selectivity kappa/mu (agonist EC50) in assay [1] of 2240. Also, the efficacy of mu activation (35S-GTPγS) in assay [2] is > 90%. This molecule also gave a Selectivity delta/mu (agonist EC50) in assay [3] of 658. For the same molecule, in assay [4], the Selectivity Delta/Mu came to 90. Also, the Selectivity Kappa/Mu in assay [5] was 111. For the same molecule, the inhibition constant Ki in assay [6] was 0.32 nM; in assay [7], 28 nM; in assay [8] it was 35 nM.

B1: Compound 2, Tyr-c[D-Glu-Phe-Phe-Lys]-NH2 (peptide)
peptide: Y[dE]FFK-NH2
modifications: lactam 2-5; N-terminus assumed
SMILES: NC(=O)[C@@H]1CCCCNC(=O)CC[C@@H](NC(=O)[C@@H](N)Cc2ccc(O)cc2)C(=O)N[C@@H](Cc2ccccc2)C(=O)N[C@@H](Cc2ccccc2)C(=O)N1
Take B1: the “Delta Antagonist IC 50” value in assay [3] amounted to 2750 nM.

Consider YPFF-NH2 [endomorphin-2 (Tyr-Pro-Phe-Phe-NH2)], for which the “Delta Antagonist IC 50” value in assay [3] worked out at 30000 nM.

B2: Compound 1, Tyr-c[D-Lys-Trp-Phe-Glu]-NH2 (peptide)
peptide: Y[dK]WFE-NH2
modifications: lactam 2-5; N-terminus assumed
SMILES: NC(=O)[C@@H]1CCC(=O)NCCCC[C@@H](NC(=O)[C@@H](N)Cc2ccc(O)cc2)C(=O)N[C@@H](Cc2c[nH]c3ccccc23)C(=O)N[C@@H](Cc2ccccc2)C(=O)N1
As to B2, the “Delta Antagonist IC 50” value in assay [3] was 105 nM.

B3: Compound 5, Tyr-c[D-Lys-Trp-Phe-Asp]-NH2 (peptide)
peptide: Y[dK]WFD-NH2
modifications: lactam 2-5; N-terminus assumed
SMILES: NC(=O)[C@@H]1CC(=O)NCCCC[C@@H](NC(=O)[C@@H](N)Cc2ccc(O)cc2)C(=O)N[C@@H](Cc2c[nH]c3ccccc23)C(=O)N[C@@H](Cc2ccccc2)C(=O)N1
B3: in assay [3], the “Delta Antagonist IC 50” value was 557 nM.

For orientation: Ki means the dissociation constant of the complex between target and ligand, obtained from inhibition or displacement.
